The values below are quoted from earlier work in paper PMC7019049.

Series [1] has as its target MIG6 peptide (Homo sapiens) (UniProt Q9UJM3).
The next series concerns the target pepJIP1 (Homo sapiens) (UniProt Q9UQF2).
Sequence of UniProt Q9UQF2 (Q9UQF2 whole entry): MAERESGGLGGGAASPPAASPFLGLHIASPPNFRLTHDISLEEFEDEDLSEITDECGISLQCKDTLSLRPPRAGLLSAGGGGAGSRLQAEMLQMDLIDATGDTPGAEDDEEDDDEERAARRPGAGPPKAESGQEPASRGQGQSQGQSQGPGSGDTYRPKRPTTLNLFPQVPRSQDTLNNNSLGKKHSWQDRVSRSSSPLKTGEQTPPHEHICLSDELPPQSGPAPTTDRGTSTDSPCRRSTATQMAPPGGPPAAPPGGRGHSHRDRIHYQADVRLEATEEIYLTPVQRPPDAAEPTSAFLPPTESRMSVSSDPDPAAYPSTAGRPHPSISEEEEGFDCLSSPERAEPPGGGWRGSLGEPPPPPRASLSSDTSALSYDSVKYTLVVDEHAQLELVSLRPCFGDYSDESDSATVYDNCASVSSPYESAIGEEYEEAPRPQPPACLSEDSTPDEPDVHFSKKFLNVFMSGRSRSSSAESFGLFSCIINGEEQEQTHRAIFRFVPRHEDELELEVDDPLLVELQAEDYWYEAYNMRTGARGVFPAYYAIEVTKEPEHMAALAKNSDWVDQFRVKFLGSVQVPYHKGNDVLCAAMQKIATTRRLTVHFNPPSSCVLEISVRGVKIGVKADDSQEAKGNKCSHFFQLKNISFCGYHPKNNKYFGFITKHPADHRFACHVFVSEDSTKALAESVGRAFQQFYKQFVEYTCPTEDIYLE

Sequence of UniProt Q9UJM3 (Q9UJM3 2-462): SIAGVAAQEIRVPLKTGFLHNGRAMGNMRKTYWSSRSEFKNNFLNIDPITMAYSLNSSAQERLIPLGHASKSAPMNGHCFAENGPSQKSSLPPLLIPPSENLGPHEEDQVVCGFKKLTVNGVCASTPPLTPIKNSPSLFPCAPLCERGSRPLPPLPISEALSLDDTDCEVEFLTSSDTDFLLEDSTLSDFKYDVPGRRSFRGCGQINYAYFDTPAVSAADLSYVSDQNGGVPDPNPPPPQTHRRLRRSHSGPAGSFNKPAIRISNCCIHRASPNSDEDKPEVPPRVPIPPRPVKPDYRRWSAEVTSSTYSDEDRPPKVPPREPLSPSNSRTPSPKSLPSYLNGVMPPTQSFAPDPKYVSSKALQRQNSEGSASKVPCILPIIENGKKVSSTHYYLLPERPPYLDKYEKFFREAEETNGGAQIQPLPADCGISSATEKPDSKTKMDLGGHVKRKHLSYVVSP

As for “EGFR kinase domain (from UniProt P00533)”, the Kd (in general, a measure of binding affinity in units of concentration) in series [1] was 13 µM. In the case of MAPK8 (JNK1) (from UniProt P45983), the Kd in the series with pepJIP1 (Homo sapiens) is 0.42 µM.
